Source: the DeepSol protein solubility set

experiment: soluble on expression in E. coli; label from the status in PepcDB or PDB records

Row | Sequence | soluble on expression in E. coli
1 | MADEIFKAFIGGLPYDSIATDIETILKHCKFTDEELKKFDIHLVHDRDSGSFKGFAYVTFENEQQMNTAISGLNGADFGNRVLKVNRAQQRDRSDRGGGRGGRGGNFGDRGGRGRGAGGFRRGGEGGRFNEGERRGGFGGGGHRGGYRQRRESEEQHKAEETSDPSAPPAERPRLNLKPRTTDAAEIEARKKQEEEETKRRQEKLFQ | not soluble
2 | MGSDKIHHHHHHMAMTQTENQTAPQQHIRIFDTTLRDGEQSPGVALNHAQKLEIAHTLARMGVDVIEAGFPIASPGDLEGVSRIAREVRGPVITALARANRADIEAAAKGVEAAEKSRIHTFIATSPIHMQKKLNLEPDAVIERAVEAVRLARQYVDDVEFSAEDATRSEWDFLSRIFKAAVEAGATTINVPDTVGYTTPEEMRKLFAYLKAKLPAHVILSSHCHDDLGMAVANSIAAAEGGARQIECTINGIGERAGNASLEEIVMAFHTRRDVYGYETGIRTRELYRASRLVSRLSGMPVQPNKAIVGDNAFAHESGIHQDGVIKARETYEIMNAELVGREAAVLVMGKHSGRAAFRKALTDLGYGDIPDDKVQHLFGRFKDLADRKGQIYAEDLRALVDARSDVPQTFSLEGFQITSGMNMMPVAFVRLHTPDGPVDATAHGDGPVEAAFQAISKITGISPTLESYRIQSVTRGDDALGEVSIHVRHGETQLNGTGVATDIVEASARAWIRVMNMIVAGMGKNKAITQMTP | not soluble
3 | EFGEPAPANAESSSVAALKIGKVGNFGDCTGTLVADQWVLTARHCLESVNNEGTQARIGGKVYDADSWALSPVSDAGLLHLTEKVTDATPAKVSRDIPTPGQTGTLYGWSSSSSLARSGQLPMAKMVVKELLGGGPSQGTPSEGAPGGATPGEVAPGGAAPSETVPSESQAESIPAGTESIPADGAMMPMIQSAILDAHSVSGAGMQGGDSGGPFFVDGKLAGLATAGTANGDPDLPSPSAAITTLAGTADWIDGVTSGRDTKSVLTAENTPAPPKTIQTSADH | not soluble
4 | MRSDGRKEDQLRPVSIQRDFLEYPEGSCLISFGKTKVICTASVIENVPNWLKGKGQGWITAEYSMLPRATQQRTIRESVQGRIGGRTHEIQRMIGRAMRTAVELTKIGERTIWVDCDVIQADGGARTAAITGAFVAVADAIIKLHKEGIIEETPIKDFVAAVSVGIVNDRILLDLNFEEDSAAQVDMNVVGTGSGRLSEVHTMGEEYSFTKDELIKMLDLAQKGINELIELQKKLYVIQDGKWERSELKEVSSTT | soluble
5 | MSQFSFTKMHGLGNSYIYVNMFEEQIPEEDLALVAEKVSNINTGIGADGMILICPSDVAPVKMRMFNNDGSEGKSCGNGLRCVAKYAYEHKLVEDTVFTIETLAGIVTAEVTVEEGKVTLAKIDMGAPRLTRAEIPMLGEGETPFIRENFLYNNHRYAFTAVSMGNPHAVIFVDDVEQAPLTTLGPVLETHEMFPERVNVEFIEILNEEEMNFRVWERGSGVTQACGTGACAAVVASILNGKMERGKEITVHLAGGDLMIAWTEEGNVLMKGPAEVICRGVYEYKIEA | not soluble
6 | MIRSMTGFGRGRAQADGREFLVEIKTVNHRYCDIYIKLPRQISFLEDKVREVIGKSISRGKVDVFINYEDFSEDSKNILIDEGLAKTYIKSVEYLRDKYGLKDDISVSLIAKFPDILKVEKPEEDEEKIWNLLYEALSHALDSLISMRETEGEGLKNDLLERTDAIEKVVQEISIRAPEVVKEYKCKLENRIKEILEQQVIDENRLAMEVAIFADRCNIDEELVRLESHINQLRQTLNSDSDTPVGRKLDFLIQEMNREINTIGSKANDLSITQNVVEIKSELEKIREQIQNIE | soluble
7 | MGSDKIHHHHHHMANIYPKRAIYCACAKTRKQRRSSYMSNERYNLRGVSASKEDVHAAIKNVDKGIFPQAFCKIIPDILGGDPDYCNIMHADGAGTKSSLAYVYWRETGDLSVWKGIAQDALIMNIDDLLCVGAVDNILVSSTIGRNKRLIPGEVVSAIINGTEELLADLRRMGVNAYATGGETADVGDLVRTIIVDSTVTCRMKRSDVIDNARIKAGDVIVGLASFGQASYEEQYNGGMGSNGLTSARHDVFAHYLAEKYPESFDPSVPDDLVYSGSMKLTDAIAGLGLDAGKLVLSPTRTYAPVVKAILDEMSRRIHGMVHCSGGAQTKVMHFVKNKRVVKDNFFPTPPLFELIQRESLTEWSEMYKVFNMGHRLEVYLSEENASHVIEISESFGIPARIVGRVEEAPTNELILQTPYGEIRY | not soluble
8 | MGSDKIHHHHHHMANQLILLKKDFFTDEQQAVTVADRYPQDVFAEHTHEFCELVMVWRGNGLHVLNERPYRITRGDLFYIRAEDKHSYTSVNDLVLQNIIYCPERLKLNVNWQAMIPGFQGAQWHPHWRLGSMGMNQARQVINQLEHESNGRDPLANEMAELLFGQLVMTLKRHRYATDDLPATSRETLLDKLITALANSLECPFALDAFCQQEQCSERVLRQQFRAQTGMTINQYLRQVRICHAQYLLQHSPLMISEISMQCGFEDSNYFSVVFTRETGMTPSQWRHLSNQSD | not soluble
9 | MRLPALFLAHGSPMLAIEDNAYTAFLGKLGEGIRPQAVVIFTAHWMTRQPTVSAVEGTYDMIYDFSGFPRELYEVVYLARGSVEWAERVRERLAGVAEVAVDSTRGLDHGSWVLLHRLFPNADIPVVQASVLPWWTPKQLFQLGEALRPLRDEGLMVIGSGGTVHNLMALRWEGHAEADAWAMAFDDWLLSRSAAHSEEVFDYENKAPYAKQAVPTPEHLAPYWIAYGAGDRDQAPRVLFREYQYGSLSLMAVTF | not soluble
10 | MGSDKIHHHHHHMNSLEQLRQAEQALLEIFSGIDAQVKQNLKRVLEAFRNQRVGAHHFAGVSGYGHDDLGRETLDKVFAEVMGAEAAAVRVQFVSGTHAIACALFGVLRPGDEMLAVVGSPYDTLEEVIGLRGQGQGSLIEFGIKYRQLELTSQGSIDWQTLSTSITDNTRLVLIQRSCGYSWRPSLSIADIEKVVNLVKQQNPDTVCFVDNCYGEFIETQEPTHVGADLMAGSLIKNPGGTIVTAGGYVAGRADLVEAAACRLTAPGIGSYGGATFDQNRLLFQGLFLSPQMVGEAMKGTHLTGYVFDKLGYPVNPAPLAPRGDVIQAIKLGSGKKLIAFCKAVQQNSPVGSYLDPVPDDMPGYESQVVMAGGTFIEGSTLEFSADGPLREPYVVYCQGGTHWSHVAIALEAAIDAVGEA | not soluble
11 | LYFQGMSLEPFGARLSRAMDDRGPLCVGIDPHASLLADWGLSDDVAGLERFSRTVVEALGEHVAVFKPQSAFFERFGSRGVAVLEKTVAEARAAGALVVMDAKRGDIGSTMAAYAEAFLRKDSPLFSDALTVSPYLGYGSLRPAVELARESGAGLFVLALTSNPEGGEVQHAVRTDGRDVAATMLAHLAAENAGEEPLGSFGAVVGATLGDLSSYDLDINGPLLAPGIGAQGAAPADLPGVFGAAVRNVVPNVSRGVLRHGPDVRALRTAADRFAEEIRAAVAA | soluble
12 | MSLHWSFPEMIRLFSDEYRSSMLSEGNFGVERESQRVNYSGDLALTPHPSVFGDKFENPRITTDFSESQIEMITPPLKSAEEVYKALNDINNEVKNALKGELLWPLSMPPRLPKEEDIPVAQFPDTEDGRQKQIYRNGLALRYGKKMQMISGIHYNFSFSDKMIDFIYRQLRIEKTKRQFIDEMYFSLTRNFLRYHWILIYLFGASPICDSTYNSVIFKELEKIEKCCPHCAGKIKNFNRYATSLRVSRFGYSDTDEKKYTVYFNSLREYETKIKKMMETESNKYSKLGIYKDGVQIQLNGNLLQSESEFYAPIRFKRNIKKGETQLTALVNRGVEYIEIRILDVNPFDKVGISVEQMNFLQVFNVFCLFEESKSIDEEQMERINTNHQLAALLGRNEDLMLYKYNDDSRIPLKNFGDEIFEKLRIVAKLMDKDNVEKKYSESVESEYKKLHNIELLPSERICREMDNDNRSYIQFGMEYAEAEGHHHHHH | not soluble
13 | MRYLPIFVFLGSFGYTETTLTKELIKDAAEKCCTRNRQECCIEIMKFGTPIRCGYDRDPKLPGYVYKCLQNVLFAKEPKKKINLDDSVCCSVFGNDQNDSGRRCENRCKNLMTSPSIDAATRLDSIKSCSLLDNVLYKCFEKCRSLRKDGIKIEVLQFEEYCNATFIQKRTFRGV | not soluble
14 | GMQTPALIIVTGHPATGKTTLSQALATGLRLPLLSKDAFKEVMFDGLGWSDREWSRRVGATAIMMLYHTAATILQSGQSLIMESNFRVDLDTERMQNLHTIAPFTPIQIRCVASGDVLVERILSRIAQGARHPGHCDDRSPADLELVRSRGDIPPLPLGGPLLTVDTTFPEQIDMNAIVQWVRQHLQSGTAFL | soluble
15 | MGSDKIHHHHHHMKKIQLTNAHKEKLFQIPLFRDLPLNIKESLLDKLDFVIYAADKKEIVVTQGTPCNKLYVLLEGKLRTDIIDGLGNEVMIEYIIAPRTFATPHLFNSNNTLPATFTALEDSVVLMATKDSTFKVISQDPQVLHNFLCIAGNCNICTVSRLKPLSRKTVRERFIVYLFEHKKKDSLTVEIMHTQSQLAEYLNVSRPALSKEINKIIKEGLITMEGKKIEILNKMALEKYL | not soluble
16 | MGSDKIHHHHHHMKKLVFDYEMKLSFSSPVTDHRFQLRCIPATGPRQQVIDVAVKIEPDVELETTIDSFDSVVMTGFIPEPHTMFNYSVTGIAFVDNAHIKSEIYKPLYRFNSALTVPGPAIEALIGICHERIVSLPADCTPIDQAREVMDEVFKTFVYTPASTTIRTTAEEAFAQRKGVCQDYAHVMLSVCRHVGLTARYIAGLLGGEGATHAWVEIYHDGRWVGLDPTHNRMVDDNYITIAHGRDYRDCMLDIGIFSGCDVKQDQWVNASVHEQGY | not soluble
17 | MKSVVLGILSSISDEVNLEMIKKYDVKLARRISGGGSVFHDMGNINYTFITSGQGGIDYLYGYLLRGTISAIENLVNDRVEVYNETDIAFKGYKISGNAGYINEDKYLLHGTLLVSSNLDI | soluble
18 | MTDSQSTQMGRGRHAKRNKSTASVGSKKNRTQSTASGKFQPSDGFTTFIVAVSRLGKQGQEFTWHDLRKVYHKETQRQLTAEELNAIFSSKNLTKREIFELPKVKRFMTSMDGSMMCRFRLIADPQEVYDDDLPPLMSTSVETDVITEDTSSDHSQAVSPSSGNPIAISTDCDDKAAGPTSDLSKSDNSPSQRSLAQQSSMTDDEGWVSGKDVRSENSSPVEDKDEVDGSKMEMEDDVFEEDQRIAAESDQVDSAMVADVIIVEEAKVEKLFKAQEIVAPIVLTESIDAAFEAVIQSVSHADATLSMTQNASEEAKVHATPPLPAERKTMVSAELANGKPIKHLIEKFDAGVNFAEHKPKSIYAQVLEEIGGSAPRVDEVFSASKKEEHAETEVTNVIFRSTSTHSSIIANGKEQLAEFVAEQEARQKVTTPNPVKEETENAFCAKEQSSMSSLDREYFASKTKLNEDLFAELGVKDTDGFQLKTVDSNGSGPGSSEIITVIETPLKDDHRKRADSVESDADVPYSLCSEDEAEPMTMIDKSMKVSQSAEQLSPVKEEQKAKTVVVNVELDGNRADPTIKDRIAALQAIVSKQHVPIAKVDSVDDDVRILSRTEELQHMALEAKPSPQALGALRRRHVRFMRGCCVVQ | soluble
19 | GFKCGIVGLPNVGKSTLFNALTKAGIEAANFPFCTIEPNTGVVPMPDPRLDQLAEIVKPQRTLPTTMEFVDIAGLVKGASKGEGLGNQFLTNIRETEAIGHVVRCFENDNIIHVSGKVNPADDIEVINTELALADLDTCERAIHRVQKKAKGGDKDAKAELAVLEKCLPQLENAGMLRALDLSAEEKAAIRYLSFLTLKPTMYIANVNEDGFENNPYLDQVREIAAKEGSVVVPVCAAVEADIAELDDEERDEFMQELGLEEPGLNRVIRAGYKLLNLQTYFTAGVKEVRAWTIPVGATAPQAAGKIHTDFEKGFIRAQTISFEDFITYKGEQGAKEAGKMRAEGKDYIVKDGDVMNFLFNV | not soluble
20 | MINSPRVCIQVQSVYIEAQSSPDNERYVFAYTVTIRNLGRAPVQLLGRYWLITNGNGRETEVQGEGVVGVQPLIAPGEEYQYTSGAIIETPLGTMQGHYEMIDENGVPFSIDIPVFRLAVPTLIHMGHHHHHHSH | not soluble
